Data set [1] deals with COc1ccc2c(CC(=O)N[C@@H](CCCNC(=N)N)C(=O)N3CCC[C@@H]3C(=O)N[C@@H](CC(C)C)C(=O)NCC(=O)N[C@@H](CC(C)C)C(=O)N[C@H](CNc3ccc([N+](=O)[O-])cc3[N+](=O)[O-])C(=O)N[C@@H](C)C(=O)N[C@H](CCCNC(=N)N)C(=O)N[C@@H](CCC(=O)O)C(=O)N[C@H](CCCNC(=N)N)C(N)=O)cc(=O)oc2c1. Briefly: Km and kcat/Km of substrates with MMP-3. The data set is classed as biochemical. The settings on record: other: substrate cleavage by MMP-3.

In data set [2] the test system is COc1ccc2c(CC(=O)N[C@@H](CCCNC(=N)N)C(=O)N3CCC[C@H]3C(=O)N[C@@H](CC(C)C)C(=O)NCC(=O)N[C@@H](CCCCOCc3ccccc3)C(=O)N[C@@H](CNc3ccc([N+](=O)[O-])cc3[N+](=O)[O-])C(=O)N[C@@H](C)C(=O)N[C@@H](CCCNC(=N)N)C(=O)N[C@@H](CCC(=O)O)C(=O)N[C@@H](CCCNC(=N)N)C(N)=O)cc(=O)oc2c1. In words: Km and kcat/Km of substrates with MMP-3. The note with it: other: substrate cleavage by MMP-3. The data set is classed as biochemical.

Data set [3] has as its system COc1ccc2c(CC(=O)N[C@H](CCCNC(=N)N)C(=O)N3CCC[C@H]3C(=O)N[C@@H](CC(C)C)C(=O)NCC(=O)N[C@@H](CCCCOCc3ccccc3)C(=O)N[C@@H](CNc3ccc([N+](=O)[O-])cc3[N+](=O)[O-])C(=O)N[C@@H](C)C(=O)N[C@H](CCCNC(=N)N)C(=O)N[C@H](CCC(=O)O)C(=O)N[C@H](CCCNC(=N)N)C(N)=O)cc(=O)oc2c1. In words: Km and kcat/Km of substrates with MMP-3. It is filed as biochemical. The note with it: other: substrate cleavage by MMP-3.

In data set [4] the test system is COc1ccc2c(CC(=O)N[C@@H](CCCNC(=N)N)C(=O)N3CCC[C@@H]3C(=O)N[C@@H](CC(C)C)C(=O)NCC(=O)N[C@@H](CC(C)C)C(=O)N[C@H](CNc3ccc([N+](=O)[O-])cc3[N+](=O)[O-])C(=O)N[C@@H](C)C(=O)N[C@H](CCCNC(=N)N)C(=O)N[C@@H](CCC(=O)O)C(=O)N[C@H](CCCNC(=N)N)C(N)=O)cc(=O)oc2c1. Briefly: Km and kcat/Km of substrates with MMP-8. It is filed as biochemical. The settings on record: other: substrate cleavage by MMP-8.

Data set [5] has as its system COc1ccc2c(CC(=O)N[C@H](CCCNC(=N)N)C(=O)N3CCC[C@H]3C(=O)N[C@@H](CC(C)C)C(=O)NCC(=O)N[C@@H](CCCCOc3ccccc3)C(=O)N[C@@H](CNc3ccc([N+](=O)[O-])cc3[N+](=O)[O-])C(=O)N[C@@H](C)C(=O)N[C@H](CCCNC(=N)N)C(=O)N[C@H](CCC(=O)O)C(=O)N[C@H](CCCNC(=N)N)C(N)=O)cc(=O)oc2c1. In words: Km and kcat/Km of substrates with MMP-8. The data set is classed as biochemical. The note with it: other: substrate cleavage by MMP-8.

Data set [6] relates to COc1ccc2c(CC(=O)N[C@@H](CCCNC(=N)N)C(=O)N3CCC[C@H]3C(=O)N[C@@H](CC(C)C)C(=O)NCC(=O)N[C@@H](CCCCOCc3ccccc3)C(=O)N[C@@H](CNc3ccc([N+](=O)[O-])cc3[N+](=O)[O-])C(=O)N[C@@H](C)C(=O)N[C@@H](CCCNC(=N)N)C(=O)N[C@@H](CCC(=O)O)C(=O)N[C@@H](CCCNC(=N)N)C(N)=O)cc(=O)oc2c1. Briefly: Km and kcat/Km of substrates with MMP-8. The data set is classed as biochemical. The note with it: other: substrate cleavage by MMP-8.

For data set [7], the system named is COc1ccc2c(CC(=O)N[C@H](CCCNC(=N)N)C(=O)N3CCC[C@H]3C(=O)N[C@@H](CC(C)C)C(=O)NCC(=O)N[C@@H](CCCCOCc3ccccc3)C(=O)N[C@@H](CNc3ccc([N+](=O)[O-])cc3[N+](=O)[O-])C(=O)N[C@@H](C)C(=O)N[C@H](CCCNC(=N)N)C(=O)N[C@H](CCC(=O)O)C(=O)N[C@H](CCCNC(=N)N)C(N)=O)cc(=O)oc2c1. In words: Km and kcat/Km of substrates with MMP-8. It is filed as biochemical. The note with it: other: substrate cleavage by MMP-8.

Data set [8] has as its system COc1ccc2c(CC(=O)N[C@@H](CCCNC(=N)N)C(=O)N3CCC[C@@H]3C(=O)N[C@@H](CC(C)C)C(=O)NCC(=O)N[C@@H](CC(C)C)C(=O)N[C@H](CNc3ccc([N+](=O)[O-])cc3[N+](=O)[O-])C(=O)N[C@@H](C)C(=O)N[C@H](CCCNC(=N)N)C(=O)N[C@@H](CCC(=O)O)C(=O)N[C@H](CCCNC(=N)N)C(N)=O)cc(=O)oc2c1. Briefly: Km and kcat/Km of substrates with MMP-13. It is filed as biochemical. The settings on record: other: substrate cleavage by MMP-13.

For data set [9], the system named is COc1ccc2c(CC(=O)N[C@H](CCCNC(=N)N)C(=O)N3CCC[C@H]3C(=O)N[C@@H](CC(C)C)C(=O)NCC(=O)N[C@@H](CCCCOc3ccccc3)C(=O)N[C@@H](CNc3ccc([N+](=O)[O-])cc3[N+](=O)[O-])C(=O)N[C@@H](C)C(=O)N[C@H](CCCNC(=N)N)C(=O)N[C@H](CCC(=O)O)C(=O)N[C@H](CCCNC(=N)N)C(N)=O)cc(=O)oc2c1. In words: Km and kcat/Km of substrates with MMP-13. The data set is classed as biochemical. The settings on record: other: substrate cleavage by MMP-13.

For data set [10], the system named is COc1ccc2c(CC(=O)N[C@@H](CCCNC(=N)N)C(=O)N3CCC[C@H]3C(=O)N[C@@H](CC(C)C)C(=O)NCC(=O)N[C@@H](CCCCOCc3ccccc3)C(=O)N[C@@H](CNc3ccc([N+](=O)[O-])cc3[N+](=O)[O-])C(=O)N[C@@H](C)C(=O)N[C@@H](CCCNC(=N)N)C(=O)N[C@@H](CCC(=O)O)C(=O)N[C@@H](CCCNC(=N)N)C(N)=O)cc(=O)oc2c1. In words: Km and kcat/Km of substrates with MMP-13. It is filed as biochemical. The settings on record: other: substrate cleavage by MMP-13.

Data set [11] concerns COc1ccc2c(CC(=O)N[C@H](CCCNC(=N)N)C(=O)N3CCC[C@H]3C(=O)N[C@@H](CC(C)C)C(=O)NCC(=O)N[C@@H](CCCCOCc3ccccc3)C(=O)N[C@@H](CNc3ccc([N+](=O)[O-])cc3[N+](=O)[O-])C(=O)N[C@@H](C)C(=O)N[C@H](CCCNC(=N)N)C(=O)N[C@H](CCC(=O)O)C(=O)N[C@H](CCCNC(=N)N)C(N)=O)cc(=O)oc2c1. Briefly: Km and kcat/Km of substrates with MMP-13. The data set is classed as biochemical. The note with it: other: substrate cleavage by MMP-13.

For data set [12], the system named is COc1ccc2c(CC(=O)N[C@@H](CCCNC(=N)N)C(=O)N3CCC[C@@H]3C(=O)N[C@@H](CC(C)C)C(=O)NCC(=O)N[C@@H](CC(C)C)C(=O)N[C@H](CNc3ccc([N+](=O)[O-])cc3[N+](=O)[O-])C(=O)N[C@@H](C)C(=O)N[C@H](CCCNC(=N)N)C(=O)N[C@@H](CCC(=O)O)C(=O)N[C@H](CCCNC(=N)N)C(N)=O)cc(=O)oc2c1. Briefly: purified protein, by the assay type. The settings on record: other: substrate cleavage by MMP-14.
Data set [13] has as its system COc1ccc2c(CC(=O)N[C@H](CCCNC(=N)N)C(=O)N3CCC[C@H]3C(=O)N[C@@H](CC(C)C)C(=O)NCC(=O)N[C@@H](CCCCOc3ccccc3)C(=O)N[C@@H](CNc3ccc([N+](=O)[O-])cc3[N+](=O)[O-])C(=O)N[C@@H](C)C(=O)N[C@H](CCCNC(=N)N)C(=O)N[C@H](CCC(=O)O)C(=O)N[C@H](CCCNC(=N)N)C(N)=O)cc(=O)oc2c1. In words: purified protein, by the assay type. The note with it: other: substrate cleavage by MMP-14.
The subject of data set [14] is COc1ccc2c(CC(=O)N[C@@H](CCCNC(=N)N)C(=O)N3CCC[C@H]3C(=O)N[C@@H](CC(C)C)C(=O)NCC(=O)N[C@@H](CCCCOCc3ccccc3)C(=O)N[C@@H](CNc3ccc([N+](=O)[O-])cc3[N+](=O)[O-])C(=O)N[C@@H](C)C(=O)N[C@@H](CCCNC(=N)N)C(=O)N[C@@H](CCC(=O)O)C(=O)N[C@@H](CCCNC(=N)N)C(N)=O)cc(=O)oc2c1. Briefly: purified protein, by the assay type. The note with it: other: substrate cleavage by MMP-14.
In data set [15] the test system is COc1ccc2c(CC(=O)N[C@H](CCCNC(=N)N)C(=O)N3CCC[C@H]3C(=O)N[C@@H](CC(C)C)C(=O)NCC(=O)N[C@@H](CCCCOCc3ccccc3)C(=O)N[C@@H](CNc3ccc([N+](=O)[O-])cc3[N+](=O)[O-])C(=O)N[C@@H](C)C(=O)N[C@H](CCCNC(=N)N)C(=O)N[C@H](CCC(=O)O)C(=O)N[C@H](CCCNC(=N)N)C(N)=O)cc(=O)oc2c1. In words: purified protein, by the assay type. The settings on record: other: substrate cleavage by MMP-14.

Sequence of MMP-3 (Homo sapiens) (chain, as listed by the source): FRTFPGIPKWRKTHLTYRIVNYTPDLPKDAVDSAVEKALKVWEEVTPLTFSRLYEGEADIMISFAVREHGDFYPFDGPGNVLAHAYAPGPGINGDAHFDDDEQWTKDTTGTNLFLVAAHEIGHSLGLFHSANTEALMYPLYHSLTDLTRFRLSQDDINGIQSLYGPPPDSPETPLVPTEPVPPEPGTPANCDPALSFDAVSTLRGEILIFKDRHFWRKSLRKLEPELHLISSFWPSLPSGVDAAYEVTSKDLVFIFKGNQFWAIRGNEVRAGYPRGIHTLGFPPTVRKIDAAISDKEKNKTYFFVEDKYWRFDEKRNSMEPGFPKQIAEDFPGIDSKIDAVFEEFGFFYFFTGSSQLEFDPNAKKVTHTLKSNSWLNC
Sequence of MMP-8 (Homo sapiens) (chain, as listed by the source): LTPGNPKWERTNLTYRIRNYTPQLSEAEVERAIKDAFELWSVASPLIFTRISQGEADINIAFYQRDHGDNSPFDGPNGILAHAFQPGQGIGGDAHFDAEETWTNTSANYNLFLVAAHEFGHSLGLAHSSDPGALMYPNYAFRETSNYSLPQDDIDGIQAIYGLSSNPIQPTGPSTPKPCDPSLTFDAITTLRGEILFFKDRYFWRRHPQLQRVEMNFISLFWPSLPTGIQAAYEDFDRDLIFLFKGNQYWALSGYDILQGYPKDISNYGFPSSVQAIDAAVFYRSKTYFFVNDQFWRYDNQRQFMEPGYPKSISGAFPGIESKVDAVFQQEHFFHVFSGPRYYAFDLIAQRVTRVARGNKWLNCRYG

With MMP-3 (Homo sapiens), the Michaelis-Menten constant (Km) in [1] was determined as 14 µM; in data set [2], 85.9 µM; in data set [3] it was 28.9 µM. The kcat/Km in data set [1] is reported as 0.63 M^−1s^−1×10^4; in [2], 0.48 M^−1s^−1×10^4; in data set [3], 0.16 M^−1s^−1×10^4.

Regarding MMP-8 (Homo sapiens), the Michaelis-Menten constant (Km) in data set [4] was 16.7 µM; in data set [5] it was 4.4 µM; in data set [6], 9.1 µM; in data set [7], 3.3 µM. The kcat/Km in data set [4] amounted to 13.9 M^−1s^−1×10^4; in data set [5], 52.2 M^−1s^−1×10^4; in [6], 17.9 M^−1s^−1×10^4; in data set [7], 14.6 M^−1s^−1×10^4.

As to MMP-13 (Homo sapiens), the Km in data set [8] stood at 9 µM; in data set [9] it was 1.2 µM; in data set [10] it was 0.9 µM; in data set [11], 1.5 µM. Besides, the kcat/Km came to 29.6 M^−1s^−1×10^4 in [8], 293 M^−1s^−1×10^4 in data set [9], 424 M^−1s^−1×10^4 in [10] and 158 M^−1s^−1×10^4 in [11].

For MMP-14 (Homo sapiens), the Km is 27.2 µM in data set [12], 7.4 µM in [13], 12 µM in [14] and 23.7 µM in data set [15]. Besides, the kcat/Km in data set [12] worked out at 4.1 M^−1s^−1×10^4; in data set [13], 15.5 M^−1s^−1×10^4; in data set [14] it was 8.3 M^−1s^−1×10^4; in [15] it was 5.09 M^−1s^−1×10^4.

Usually Km stands for the concentration of substrate that gives half-maximal velocity.

(Values after patent US20040018561A1, “Peptide compounds and their use as protease substrates” (priority 2002, published 2004).)
